Changes are numbered by the printed parent chain.
Key:
Assay in all cases: flow cytometry on transfected 293T cells, PE secondary antibody, geo mean
[1] = target: T1, human CCR7 variant V123I (20100126473) (human, UniProt P32248 25-378)
T1 sequence: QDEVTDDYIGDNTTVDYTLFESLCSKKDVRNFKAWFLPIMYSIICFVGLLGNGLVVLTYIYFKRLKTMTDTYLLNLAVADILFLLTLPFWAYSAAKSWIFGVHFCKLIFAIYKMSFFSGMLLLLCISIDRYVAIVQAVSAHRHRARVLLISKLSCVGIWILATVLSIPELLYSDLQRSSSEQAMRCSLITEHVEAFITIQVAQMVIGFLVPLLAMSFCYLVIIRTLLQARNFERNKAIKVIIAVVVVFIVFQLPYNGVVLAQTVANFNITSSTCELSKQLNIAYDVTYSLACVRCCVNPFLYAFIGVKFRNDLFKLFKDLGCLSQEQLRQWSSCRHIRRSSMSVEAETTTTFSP

[2] = target: T2, human CCR7 variant S49F (20100122627) (human, UniProt P32248 25-378)
T2 sequence: T1 sequence with S25F, I99V

[3] = target: T3, murine CCR7 Y44F/V47L/K201R/N202S/G204S/T207A/L208M construct 20110105423 (mouse, UniProt P47774 25-378)
T3 construct: Murine CCR7 with seven human residues; also called YVKNGTL; construct YVKNGTL
T3 chain: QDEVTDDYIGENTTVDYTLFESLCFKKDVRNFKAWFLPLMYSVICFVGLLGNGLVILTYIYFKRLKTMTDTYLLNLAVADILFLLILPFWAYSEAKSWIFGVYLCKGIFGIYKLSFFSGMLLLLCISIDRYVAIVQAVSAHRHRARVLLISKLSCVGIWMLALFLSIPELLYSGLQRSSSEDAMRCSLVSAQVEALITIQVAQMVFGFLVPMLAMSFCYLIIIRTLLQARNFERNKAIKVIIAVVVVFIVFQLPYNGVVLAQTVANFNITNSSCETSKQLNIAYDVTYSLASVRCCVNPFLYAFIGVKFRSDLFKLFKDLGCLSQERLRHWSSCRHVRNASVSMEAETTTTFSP

[4] = target: T4, human CCR7 variant S202N (20110009483) (human, UniProt P32248 25-378)
T4 sequence: T1 sequence with I99V, S178N

[5] = target: T5, human CCR7 variant S204G (20100171269) (human, UniProt P32248 25-378)
T5 sequence: T1 sequence with I99V, S180G

[6] = target: T6, human CCR7 variant A207T (20100171270) (human, UniProt P32248 25-378)
T6 sequence: T1 sequence with I99V, A183T

[7] = target: T7, human CCR7 variant D35E (20100122625) (human, UniProt P32248 25-378)
T7 construct: Human CCR7 with the murine residue at position 35; also called D35 variant
T7 sequence: T1 sequence with D11E, I99V

Measured: binding result

B1: antibody 6B4.1 (antibody, V domains shown)
VH: QVQLVESGGGVVQPGRSLRLSCAASGFTFSSYGMHWVRQAPGKGLEWVAVIWYDGSKKYYADSVKGRFTISRDNSKNTLYLQMNRLRAEDTAVYYCARDGGIAVFLQDNWFDPWGQGTLVTVSS
VL: SYELTQPPSVSVSPGQRARITCSGDKLGDKYASWYQQKPGQSPLLVIYQDSKRPSGIPERFSGSNSGNTATLTISGTQAMDEADYYCQAWGSSTVIFGGGTKLTVLG
notes: Human antibody from XenoMouse hybridoma; Light = 2 and heavy = 42 is inferred from the order of the listing (light chains first)
binds: all assays above

B2: antibody 6B5.1 (antibody, human IgG2, lambda, V domains shown)
VH: B1 VH with S30R, Q107E
VL: B1 VL with R19S, S51G
notes: Human antibody from XenoMouse hybridoma; Light = 18 and heavy = 50 is inferred from the order of the listing
binds: all assays above

Reference: patent US20170342155A1 (Amgen, published 2017)
